In PMC139967 one finds stoichiometry N (calmodulins per T701-Myo1c) data, which are given here for 1 substance.

The target in the test is T701-Myo1c (neck-tail fragment of bullfrog myosin-1c, amino acids 701-1028) (bullfrog) (UniProt Q92002). Briefly: SDS-PAGE gel scanning.
Chain of T701-Myo1c (neck-tail fragment of bullfrog myosin-1c, amino acids 701-1028) (bullfrog) (Q92002 701-1028): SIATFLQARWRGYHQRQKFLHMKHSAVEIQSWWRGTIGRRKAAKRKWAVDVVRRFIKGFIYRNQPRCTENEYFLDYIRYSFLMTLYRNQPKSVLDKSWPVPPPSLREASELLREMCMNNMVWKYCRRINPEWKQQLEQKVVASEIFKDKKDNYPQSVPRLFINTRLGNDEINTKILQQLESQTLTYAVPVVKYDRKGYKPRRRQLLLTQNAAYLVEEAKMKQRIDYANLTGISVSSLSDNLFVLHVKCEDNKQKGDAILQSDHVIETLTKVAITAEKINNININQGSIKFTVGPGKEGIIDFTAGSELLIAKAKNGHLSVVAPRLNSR

For “Xenopus calmodulin (from UniProt P0DP33 1-149) (natural protein)”, the stoichiometry N (calmodulins per T701-Myo1c) came to 2.6.
